Measured values as given in the supplement of paper PMC9170038.

How the values were obtained:
MS2 coat protein [1] = test: apparent KD of MS2 coat protein, switch OFF state (with FMN for OFF switches, without FMN for ON switches); designed switch direction (-1 OFF switch, 1 ON switch): -1; higher = weaker reporter binding; settings: FMN input: 0 or 200 uM; Eterna round: R93 (includes R88 designs)
Method in brief: (§1)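 Illumina sequencing clusters served as templates for on-chip transcription of the designed RNA switches. SNAP-549-labelled MS2 coat protein was then titrated in twofold steps from 0.7 or 1.5 nM to 3 µM, allowing 0.8–1.5 h per step at first and 10–20 min per step later. The buffer held 100 mM Tris-HCl pH 7.5, 80 mM KCl and 4 mM MgCl2, without or with constant ligand. Apparent KD is the median per design of normalised cluster binding-curve fits.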

MS2 coat protein [2] = test: apparent KD of MS2 coat protein, switch ON state; designed switch direction (-1 OFF switch, 1 ON switch): -1; higher = weaker reporter binding; settings: FMN input: 0 or 200 uM; Eterna round: R93 (includes R88 designs)
Method in brief: as §1

Sequence	apparent KD of MS2 coat protein (MS2 coat protein [1])	apparent KD of MS2 coat protein (MS2 coat protein [2])
AAAAAGUCAGGAUAUACGAAAAAAAAAAAAAAAAAAAAAAAGUAGAAGGGACAUGAGGAUCACCCAUGUAAAAA [Exclusion 4]	27.1 nM	88.9 nM
AAAGGACGAGGAUAUACAUGAGGAUCACCCAUGUAAAAAGCAUAAUAAAAUAACUUAUGUAGAAGGCGUCCAAA [Mat - Exclusion 3 - Eli mod - D91]	102 nM	22 nM
AAACGUACAGGAUAUACGAAAAGAUUACGAAAGUAAUCGGGACAUGAGGAUCACCCAUGUAGAAGGGUACGAAA [Mod2 of Meechl 64% 4]	61.7 nM	48 nM
AAAGGACGAGGAUAUACAUGAGGAUCACCCAUGUAAAAAACAUAGUAAAAGGGCUUGUGUAGAAGGCGUCCAAA [Meechl Ex3 2 R2 v10]	35.6 nM	173 nM
AUAAAACAUGAGGAUCACCCAUGUGAGGAUAUGCGAAAUAAAGAAAUAAAUAAAUAAAGCAGAAGGCACAAUAA [Ex 1 Tesla 1]	21.9 nM	34.6 nM
AAAAAACAUGAGGAUCACCCAUGUGAGGAUAUGAACGAAAUAAAAUAAAAAUAAAAGUUCAGAAGGCACAAAAA [Mat - Exclusion 1 - Eli mod - D11]	44.7 nM	33.2 nM
AAGAACAGAGGAUAUACAAAAUAAAAGAAAAGAAAGAAAGAACAUGAGGAUCACCCAUGUAGAAGGCUGAAGAA [Sonbef]	24.1 nM	28.2 nM
AACUGUACAGGAUAUACAUGAGGAUCACCCAUGUGAGAAUUAAGUGGAGAACCACAAAGUAGAAGGGUACAGGA [Mat - Exclusion 3 - JL mod - D17]	218 nM	45.7 nM
AAGAAGUGAGGAUAUCGUUGUCGUCACAAAAGUGAUGACGACGAGAAGGCACAUGAGGAUCACCCAUGUAAAGA [Opal 28]	43 nM	37.8 nM
AAAAAACAUGAGGAUCACCCAUGUGAGGAUAUGCUGCGAAUAAAGAAAGAAGAAAGCAGCAGAAGGCACACCAA [Amethyst 77]	45.6 nM	26.5 nM
AAAAACAUAGGAUAUACAUGAGGAUCACCCAUGUUAAAAUAAAGAAAGGGAGAAAUAAGUAGAAGGAUGAAAAA [Meechl Ex3 3]	31.2 nM	26.5 nM
AAGAAGUCAGGAUAUGCUGCUCGUCACUUGCGUGAUGAGUAGCAGAAGGGACAUGAGGAUCACCCAUGUAAAGA [Opal 14]	65.6 nM	50.7 nM
AAAAGUACAGGAUAUACAUGAGGAUCACCCAUGUAGAAAGGAAGUGUAAAAAAAAAGUGUAGAAGGGUGCAUGA [MS2 Riboswitches On Chip Exclusion 3 wbt1]	21.2 nM	22.5 nM
CAAAAGGAAGGAUAUACAUAAUAAAACGGGCGGGCACCUUAACAUGAGGAUCACCCAUGUAGAAGGUCCAAUAC [Onesmabe]	18.6 nM	15.7 nM
AAAAAGUCAGGAUAUGCAGACAAAGCAAAAAAGCAAUGUCUGCAGAAGGGACAUGAGGAUCACCCAUGUAAAAA [Ex 4 May 9]	44.6 nM	57.7 nM
AAGAAACAUGAGGAUCACCCAUGUCAGGAUAUCGAAGAAAGAAAGAAAGAAAGAAGAACGAGAAGGGACAAAGG [Gaius Iulius Aquila]	60.4 nM	44.4 nM
AAGAAGUAAGGAUAUGCUGCUCGUCACAAAAGUGAUGAGUAGCAGAAGGUACAUGAGGAUCACCCAUGUUAAGA [JL eternac mod 4]	20.6 nM	24.4 nM
AAAAAGUCAGGAUAUAUGCGAAAAAUAAAAAAAAUAAAAGCAUAGAAGGGACAUGAGGAUCACCCAUGUUAAAA [Ex 4 May 16]	26.6 nM	36.6 nM
AAAUACUAAGGAUAUACAUGAGGAUCACCCAUGUACAAACCCGUGGAACGGAUCGUUAGUAGAAGGUGGACAAA [Zaanrion]	15.4 nM	15.6 nM
AAAAAACAUGAGGAUCACCCAUGUGAGGAUAUCUGUAUCCAAAAGGAAGUGUAGGAUCGGAGAAGGCACUAGGA [Banishment 1 - Jieux - Exclusion 1]	52.3 nM	36.5 nM
AGGAAACAUGAGGAUCACCCAUGUCAGGAUAUUUGAAAGAAAAGAAAAGAAAGAAGAAGAAGAAGGGACAAGAA [Narmer]	31.1 nM	27.6 nM
ACUGAUACAGGAUAUACAUGAGUGAAAAAAGUAAAUCCACUACAUGAGGAUCACCCAUGUAGAAGGGUAUCAGA [Ex2 Design 179: Random 5B]	42.7 nM	52.1 nM
ACCUGACAUGAGGAUCACCCAUGUCAGGAUAUGACUUCGAAAAUAAAAUAAAACGAUGUCAGAAGGGACAUGGG [Design 71: Sub-opt PB]	15.3 nM	21.8 nM

Sequence	apparent KD of MS2 coat protein (MS2 coat protein [1])	apparent KD of MS2 coat protein (MS2 coat protein [2])
AGGAAACAUGAGGAUCACCCAUGUGAGGAUAUGUAAAAGAAAAGAAAAGAAAGAAGAAACAGAAGGCACAAGAA [Nynetjer]	49.1 nM	49.4 nM
AACUGUACAGGAUAUACAUGAGGAUCACCCAUGUGAGAAUUAAGUGGAAAACCACAAAGUAGAAGGGUACAGGA [Mat - Exclusion 3 - JL mod - D18]	136 nM	27.6 nM
AAGAGUAGAGGAUAUAUAUGAAAAGAGUCGAAAGACUCAAAACAUGAGGAUCACCCAUGUAGAAGGCUACUCAA [Hyphema Seclusion mod]	17.5 nM	18.7 nM
AAGAACGGAGGAUAUACAUGAGGAUCACCCAUGUAAAAGAAAGAAAAGGGAAAGAAAAGUAGAAGGCCGAAGAA [Djeserkare Amenhotep I]	51.3 nM	39.8 nM
AGAAAGUCAGGAUAUACGAAAGUGCGAAAGCACACAAGGGAACAUGAGGAUCACCCAUGUAGAAGGGACAAGAA [Diamond 78]	91.7 nM	70.9 nM
AACAAACAUGAGGAUCACCCAUGUCAGGAUAUCCGAAAUAAAGAAACAAUAAUAAUAAGGAGAAGGGACUAAAU [Ex1 sub 2]	34.1 nM	35.5 nM
AGGAAACAUGAGGAUCACCCAUGUGAGGAUAUAGAAAAGAAAAGAAAAGAAAGAAGAACUAGAAGGUACAAGAA [Menkauhor Kaiu]	26.8 nM	21 nM
AAAAAGUCAGGAUAUACAUGAGGAUCACCCAUGUAAAAAAAAGGGAAAAAAAAAAAGGGUAGAAGGGACGAAAA [Exclusion 3]	28.8 nM	25.3 nM
CCUACGUGAGGAUAUGCGGAUAACACGUUAGACAAAUAGACGCAGAAGGCACAUGAGGAUCACCCAUGUGAACC [JR_Exc004_Sub317]	17.6 nM	21.9 nM
ACAAGACAUGAGGAUCACCCAUGUGAGGAUAUGCUCGGAUGACAUGACGUUAGCUAACGCAGAAGGCACAAUAA [Exclusion 1]	36.7 nM	28.7 nM
AAAUCAGUAGGAUAUACGAUUUUAUGCUAGAUAGAGGAACCACAUGAGGAUCACCCAUGUAGAAGGACUAGAUA [EX2 Malc#24]	16.4 nM	14.5 nM
AACAAGGCAGGAUAUACAUGAGGAUCACCCAUGUGAGAAUUAAGUGGCGUAACACAAAGUAGAAGGGCCAUGGA [Ruby 5]	49.9 nM	39.5 nM
AAAAAUGGAGGAUAUACGUACAUGUCAAAAGACGUGAAGGGACAUGAGGAUCACCCAUGUAGAAGGCUAAAAAA [JL Stem Breaker 7]	29.5 nM	80.1 nM
AAAAAACAUGAGGAUCACCCAUGUCAGGAUAUGCGAAGCAAAAAAAAAAAAAAGCGAAGCAGAAGGGACUAAAA [Exclusion1 Malc#5]	32.9 nM	38.2 nM
AACAGGACAGGAUAUACAUGAGGAUCACCCAUGUGAGAAUUAAGUGGCGUACCACAAAGUAGAAGGGUCCUGGA [Mat - Exclusion 3 - JL mod - D40]	216 nM	44.5 nM
AAUGGUGCAGGAUAUACAUGAGGAUCACCCAUGUAGAUCAGACAUAUGGUCGAAACAUGUAGAAGGGCACCAAA [Ex 3May 54]	319 nM	112 nM
AGCUAGUCAGGAUAUACGCAAACGAACGAAGCAGUGAAGGGACAUGAGGAUCACCCAUGUAGAAGGGACUAGCA [Diamond 30]	75.5 nM	26.8 nM
AGCUAGUCAGGAUAUACGAACAUGUCACAAGACGUGAAGGGACAUGAGGAUCACCCAUGUAGAAGGGACUAGCA [74%, Web mod - With 1 more C's]	203 nM	52.9 nM
AGUCAUACAGGAUAUACAUGAGGAUCACCCAUGUUUAUCCUAAAAGGGUGAUCCUCAUGUAGAAGGGUAUGACA [EX3 209: Super Stable 9]	14.5 nM	23.7 nM
AAAAAGAUAGGAUAUACGUACAUGUCAAAAGACGUGAAGGGACAUGAGGAUCACCCAUGUAGAAGGGUUAAAAA [JL Wide Open 41]	45.3 nM	285 nM
GAAAAGUCAGGAUAUACAGAAAAAAAAACGAAAAAAAAUCUGUAGAAGGGACAUGAGGAUCACCCAUGUUAAAG [Mat - Exclusion 4 - Mayanna - D126]	23.6 nM	38 nM
AGGGAGUCAGGAUAUCGGAAAACAAAACAACGAAAAAAAGACGAGAAGGGACAUGAGGAUCACCCAUGUAAGAA [milkweed 17]	21.6 nM	41.4 nM
